This note sets out measurements from the Human Domainome abundance scans (Beltran et al. 2025).

± gives the uncertainty stated by the source.

This series is described as follows: abundance fitness (aPCA) (normalised: wild type 0, dead -1); higher = more abundant; growth selection in yeast, the domain comes from the species named. Particulars: Homo sapiens.
“DnaJ homolog subfamily B member 1 K44Q, P25685” yielded an abundance fitness of -0.192 ± 0.16.
As for “DnaJ homolog subfamily B member 1 K44R, P25685”, the abundance fitness was -0.057 ± 0.084.
Substance “DnaJ homolog subfamily B member 1 K44W, P25685” returned an abundance fitness of -0.315 ± 0.11.
As for “DnaJ homolog subfamily B member 1 K44Y, P25685”, the figure is -0.268 ± 0.1; as for “DnaJ homolog subfamily B member 1 K46A, P25685”, -0.277 ± 0.35; as for “DnaJ homolog subfamily B member 1 K46G, P25685”, -0.016 ± 0.16.
As for “DnaJ homolog subfamily B member 1 K46I, P25685”, the figure is -0.116 ± 0.15; as for “DnaJ homolog subfamily B member 1 K46L, P25685”, -0.639 ± 0.43.
As for “DnaJ homolog subfamily B member 1 K46T, P25685”, the figure is -0.451 ± 0.31.
As to “DnaJ homolog subfamily B member 1 K46W, P25685”, the abundance fitness is -0.175 ± 0.31.
In the case of “DnaJ homolog subfamily B member 1 K60A, P25685”, the abundance fitness is -0.172 ± 0.093.
Substance “DnaJ homolog subfamily B member 1 K60C, P25685” yielded an abundance fitness of -0.696 ± 0.21.
As for “DnaJ homolog subfamily B member 1 K60D, P25685”, the figure is -0.442 ± 0.13; as for “DnaJ homolog subfamily B member 1 K60E, P25685”, -0.159 ± 0.14.
In the case of “DnaJ homolog subfamily B member 1 K60G, P25685”, the abundance fitness was -0.325 ± 0.073.
Take “DnaJ homolog subfamily B member 1 K60H, P25685”: the abundance fitness is -0.171 ± 0.082.
“DnaJ homolog subfamily B member 1 K60I, P25685” showed an abundance fitness of -0.654 ± 0.16.
As for “DnaJ homolog subfamily B member 1 K60L, P25685”, the figure is -0.426 ± 0.052; as for “DnaJ homolog subfamily B member 1 K60M, P25685”, -0.462 ± 0.11; as for “DnaJ homolog subfamily B member 1 K60N, P25685”, -0.311 ± 0.098.
Substance “DnaJ homolog subfamily B member 1 K60P, P25685” yielded an abundance fitness of -0.352 ± 0.17.
As for “DnaJ homolog subfamily B member 1 K60Q, P25685”, the figure is -0.128 ± 0.085; as for “DnaJ homolog subfamily B member 1 K60S, P25685”, -0.216 ± 0.072.
For “DnaJ homolog subfamily B member 1 K60T, P25685” the value was -0.298 ± 0.09.
“DnaJ homolog subfamily B member 1 K60V, P25685”: the abundance fitness is -0.706 ± 0.11.
The substance “DnaJ homolog subfamily B member 1 K60Y, P25685” had an abundance fitness of -0.575 ± 0.29.
Regarding “DnaJ homolog subfamily B member 1 L9A, P25685”, the abundance fitness was -0.892 ± 0.26.
For “DnaJ homolog subfamily B member 1 L9C, P25685” the value was -0.823 ± 0.11; for “DnaJ homolog subfamily B member 1 L9E, P25685”, -0.631 ± 0.13.
“DnaJ homolog subfamily B member 1 L9G, P25685” gave an abundance fitness of -0.855 ± 0.074.
“DnaJ homolog subfamily B member 1 L9H, P25685” came in with an abundance fitness of -1.12 ± 0.12.
“DnaJ homolog subfamily B member 1 L9I, P25685” showed an abundance fitness of -0.546 ± 0.13.
As for “DnaJ homolog subfamily B member 1 L9K, P25685”, the figure is -1.26 ± 0.23; as for “DnaJ homolog subfamily B member 1 L9M, P25685”, -0.412 ± 0.16; as for “DnaJ homolog subfamily B member 1 L9N, P25685”, -0.664 ± 0.11.
As for “DnaJ homolog subfamily B member 1 L9P, P25685”, the figure is -0.726 ± 0.082; as for “DnaJ homolog subfamily B member 1 L9Q, P25685”, -0.649 ± 0.095.
Take “DnaJ homolog subfamily B member 1 L9R, P25685”: the abundance fitness is -1.01 ± 0.095.
In turn, “DnaJ homolog subfamily B member 1 L9S, P25685” gave an abundance fitness of -0.681 ± 0.079.
As for “DnaJ homolog subfamily B member 1 L9T, P25685”, the figure is -0.69 ± 0.14; as for “DnaJ homolog subfamily B member 1 L9V, P25685”, -0.697 ± 0.17; as for “DnaJ homolog subfamily B member 1 L9W, P25685”, -1.25 ± 0.17.
For “DnaJ homolog subfamily B member 1 L9Y, P25685” the value was -0.818 ± 0.11.
For “DnaJ homolog subfamily B member 1 L11A, P25685” the value was -0.147 ± 0.078; for “DnaJ homolog subfamily B member 1 L11C, P25685”, -0.018 ± 0.088.
In turn, “DnaJ homolog subfamily B member 1 L11D, P25685” gave an abundance fitness of -0.776 ± 0.16.
Substance “DnaJ homolog subfamily B member 1 L11E, P25685” showed an abundance fitness of -0.5 ± 0.15.
Substance “DnaJ homolog subfamily B member 1 L11F, P25685” gave an abundance fitness of -0.949 ± 0.11.
For the substance “DnaJ homolog subfamily B member 1 L11G, P25685”, the abundance fitness is -0.773 ± 0.071.
For the substance “DnaJ homolog subfamily B member 1 L11H, P25685”, the abundance fitness was -0.795 ± 0.15.
For “DnaJ homolog subfamily B member 1 L11I, P25685”, the abundance fitness was found to be 0.015 ± 0.1.
For “DnaJ homolog subfamily B member 1 L11K, P25685” the value was -0.849 ± 0.19; for “DnaJ homolog subfamily B member 1 L11M, P25685”, -0.423 ± 0.12.
As for “DnaJ homolog subfamily B member 1 L11N, P25685”, the figure is -0.712 ± 0.12; as for “DnaJ homolog subfamily B member 1 L11P, P25685”, -0.759 ± 0.12.
As for “DnaJ homolog subfamily B member 1 L11Q, P25685”, the figure is -0.464 ± 0.14.
Take “DnaJ homolog subfamily B member 1 L11R, P25685”: the abundance fitness was -0.96 ± 0.075.
Consider “DnaJ homolog subfamily B member 1 L11S, P25685”, for which the abundance fitness is -0.381 ± 0.081.
As for “DnaJ homolog subfamily B member 1 L11T, P25685”, the figure is -0.209 ± 0.11; as for “DnaJ homolog subfamily B member 1 L11V, P25685”, -0.041 ± 0.065.
For “DnaJ homolog subfamily B member 1 L11W, P25685” the value was -1.44 ± 0.15; for “DnaJ homolog subfamily B member 1 L11Y, P25685”, -1.1 ± 0.13.
“DnaJ homolog subfamily B member 1 L29A, P25685”: the abundance fitness is -0.167 ± 0.085.
As for “DnaJ homolog subfamily B member 1 L29C, P25685”, the figure is -0.119 ± 0.086; as for “DnaJ homolog subfamily B member 1 L29D, P25685”, -0.089 ± 0.16; as for “DnaJ homolog subfamily B member 1 L29E, P25685”, 0.067 ± 0.15.
As for “DnaJ homolog subfamily B member 1 L29F, P25685”, the figure is -0.04 ± 0.077; as for “DnaJ homolog subfamily B member 1 L29G, P25685”, 0.01 ± 0.083; as for “DnaJ homolog subfamily B member 1 L29H, P25685”, -0.015 ± 0.12.
For “DnaJ homolog subfamily B member 1 L29I, P25685” the value was 0.116 ± 0.12; for “DnaJ homolog subfamily B member 1 L29K, P25685”, -0.116 ± 0.08; for “DnaJ homolog subfamily B member 1 L29M, P25685”, -0.234 ± 0.12.
For the substance “DnaJ homolog subfamily B member 1 L29N, P25685”, the abundance fitness was -0.572 ± 0.3.
As for “DnaJ homolog subfamily B member 1 L29P, P25685”, the figure is -0.461 ± 0.16; as for “DnaJ homolog subfamily B member 1 L29Q, P25685”, 0.086 ± 0.18; as for “DnaJ homolog subfamily B member 1 L29R, P25685”, -0.06 ± 0.077.
In turn, “DnaJ homolog subfamily B member 1 L29S, P25685” yielded an abundance fitness of -0.138 ± 0.058.
In the case of “DnaJ homolog subfamily B member 1 L29T, P25685”, the abundance fitness is -0.131 ± 0.072.
For “DnaJ homolog subfamily B member 1 L29V, P25685” the value was -0.052 ± 0.076.
In turn, “DnaJ homolog subfamily B member 1 L29W, P25685” registered an abundance fitness of -0.111 ± 0.068.
Substance “DnaJ homolog subfamily B member 1 L29Y, P25685” displayed an abundance fitness of -0.008 ± 0.089.
As for “DnaJ homolog subfamily B member 1 L55C, P25685”, the figure is -0.788 ± 0.2; as for “DnaJ homolog subfamily B member 1 L55E, P25685”, -0.752 ± 0.099.
For the substance “DnaJ homolog subfamily B member 1 L55F, P25685”, the abundance fitness is -0.649 ± 0.1.
In turn, “DnaJ homolog subfamily B member 1 L55G, P25685” registered an abundance fitness of -0.687 ± 0.081.
Regarding “DnaJ homolog subfamily B member 1 L55H, P25685”, the abundance fitness was -0.686 ± 0.14.
For “DnaJ homolog subfamily B member 1 L55I, P25685” the value was -0.354 ± 0.11; for “DnaJ homolog subfamily B member 1 L55K, P25685”, -0.781 ± 0.11; for “DnaJ homolog subfamily B member 1 L55M, P25685”, -0.464 ± 0.11.
Substance “DnaJ homolog subfamily B member 1 L55N, P25685” came in with an abundance fitness of -0.603 ± 0.17.
As to “DnaJ homolog subfamily B member 1 L55P, P25685”, the abundance fitness is -0.705 ± 0.088.
